Assay results taken from article PMC3212559, “Large-Scale Protein-Protein Interaction Analysis in Arabidopsis Mesophyll Protoplasts by Split Firefly Luciferase Complementation” (PLoS ONE, 2011).

How the values were obtained:
Test in all cases: split reporter (BiFC, NanoBiT); SFLC in living Arabidopsis mesophyll protoplasts: Aux/IAA-FLucN or MYB30-FLucN co-expressed with ARFCTD-FLucC or Aux/IAA-FLucC for 6 hr; 10 µg of each construct, 2×10^4 cells, 96-well plate, D-luciferin; relative activity standardised against ARF5CTD-FLucC + IAA28-FLucN
Conditions in all cases: partners not purified
IAA1-FLucC = target: T1, IAA1-FLucC (Arabidopsis, UniProt P49677 1-168)
T1 construct: Arabidopsis Aux/IAA protein IAA1; also called Aux/IAA-FLucC; source: Arabidopsis mesophyll protoplasts, transfected, in living cells; not shown: FLucC (firefly luciferase aa 394-550)
T1 sequence (looked up): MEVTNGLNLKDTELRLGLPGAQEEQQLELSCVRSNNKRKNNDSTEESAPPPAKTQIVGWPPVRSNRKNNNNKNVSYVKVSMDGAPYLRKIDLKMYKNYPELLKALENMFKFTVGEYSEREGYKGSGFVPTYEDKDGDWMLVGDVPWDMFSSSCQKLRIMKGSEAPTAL

IAA12-FLucC = target: T2, IAA12-FLucC (Arabidopsis, UniProt Q38830 1-239)
T2 construct: Arabidopsis Aux/IAA protein IAA12; also called Aux/IAA-FLucC; source: Arabidopsis mesophyll protoplasts, transfected, in living cells; not shown: FLucC (firefly luciferase aa 394-550)
T2 sequence (looked up): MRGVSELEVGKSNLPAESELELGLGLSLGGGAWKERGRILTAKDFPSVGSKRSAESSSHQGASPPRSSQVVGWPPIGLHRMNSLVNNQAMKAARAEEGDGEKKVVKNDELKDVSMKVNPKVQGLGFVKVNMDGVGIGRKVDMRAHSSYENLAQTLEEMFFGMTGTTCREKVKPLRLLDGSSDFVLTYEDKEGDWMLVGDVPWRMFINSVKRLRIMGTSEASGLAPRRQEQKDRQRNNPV

IAA9-FLucC = target: T3, IAA9-FLucC (Arabidopsis, UniProt Q38827 1-338)
T3 construct: Arabidopsis Aux/IAA protein IAA9; also called Aux/IAA-FLucC; source: Arabidopsis mesophyll protoplasts, transfected, in living cells; not shown: FLucC (firefly luciferase aa 394-550)
T3 sequence (looked up): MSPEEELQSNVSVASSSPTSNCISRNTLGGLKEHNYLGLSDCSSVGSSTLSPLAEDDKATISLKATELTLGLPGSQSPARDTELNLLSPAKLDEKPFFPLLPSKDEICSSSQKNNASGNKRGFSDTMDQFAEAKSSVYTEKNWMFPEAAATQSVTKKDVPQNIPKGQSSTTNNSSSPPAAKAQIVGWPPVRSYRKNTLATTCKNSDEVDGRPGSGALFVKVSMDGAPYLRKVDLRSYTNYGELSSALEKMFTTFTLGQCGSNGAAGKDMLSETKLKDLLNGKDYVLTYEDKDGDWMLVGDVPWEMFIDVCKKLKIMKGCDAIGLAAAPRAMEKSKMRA

[1] = target: T4, ARF6 C-terminal domain (CTD)-FLucC (Arabidopsis, UniProt Q9ZTX8 796-935)
T4 construct: In the ARF-ARF tests the same CTD stood both as ARFCTD-FLucC and as ARFCTD-FLucN; one molecule for both; also called ARF6CTD-FLucC; ARFCTD-FLucC; source: Arabidopsis mesophyll protoplasts, transfected, in living cells (SFLC) and in lysate (co-IP); not shown: FLucC (firefly luciferase aa 394-550)
T4 sequence (looked up): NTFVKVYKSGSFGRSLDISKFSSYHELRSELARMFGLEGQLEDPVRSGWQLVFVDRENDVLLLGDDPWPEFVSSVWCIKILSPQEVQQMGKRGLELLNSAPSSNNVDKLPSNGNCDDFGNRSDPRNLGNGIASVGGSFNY

Measured: relative luciferase activity (standardised against ARF5CTD-FLucC + IAA28-FLucN)

B1: MYB30-FLucN (natural protein, UniProt Q9SCU7 1-323, looked up)
chain: MVRPPCCDKGGVKKGPWTPEEDIILVTYIQEHGPGNWRAVPTNTGLLRCSKSCRLRWTNYLRPGIKRGNFTEHEEKMIVHLQALLGNRWAAIASYLPQRTDNDIKNYWNTHLKKKLNKVNQDSHQELDRSSLSSSPSSSSANSNSNISRGQWERRLQTDIHLAKKALSEALSPAVAPIITSTVTTTSSSAESRRSTSSASGFLRTQETSTTYASSTENIAKLLKGWVKNSPKTQNSADQIASTEVKEVIKSDDGKECAGAFQSFSEFDHSYQQAGVSPDHETKPDITGCCSNQSQWSLFEKWLFEDSGGQIGDILLDENTNFF
notes: transcription factor MYB30, the unrelated protein used as negative control; source: Arabidopsis mesophyll protoplasts, transfected, in living cells; not shown: FLucN (firefly luciferase aa 1-398)
< 0.1: all assays above
